The record followed here is publication PMC5636895.

Ends that are not written are not given here.

The target in one experiment is monomeric fibrin (human) (UniProt P02679). Kind of experiment: optical trap-based force spectroscopy; Mn^2+-activated αIIbβ3 on a laser-trapped latex bead tapped against a silica pedestal covalently coated with monomeric fibrin; 0.1 M HEPES, pH 7.4, 2 mg/ml BSA, 0.1% Triton X-100; two-state fit of the rupture force profile.
In experiment [1] the target is polymerized fibrin (human) (UniProt P02679). Kind of experiment: optical trap-based force spectroscopy; Mn^2+-activated αIIbβ3 (or BSA) on a laser-trapped 2.0 µm latex bead tapped against the edge of a fibrin clot in a flow chamber; 0.1 M HEPES, pH 7.4, 2 mg/ml BSA, 0.1% Triton X-100; 5 Hz, 800 nm amplitude; clot from re-calcified plasma or from purified fibrinogen, which one gave the tabulated data is not given; two-state fit of the rupture force profile.

Experiment [2] has the same target. Nature of the experiment: optical trap-based force spectroscopy; as a1, but with non-activated αIIbβ3 (no Mn^2+ activation) on the bead.
The target of another experiment is fibrinogen (human) (UniProt P02671). Nature of the experiment: optical trap-based force spectroscopy; Mn^2+-activated αIIbβ3 on a laser-trapped latex bead tapped against a silica pedestal covalently coated with fibrinogen; 0.1 M HEPES, pH 7.4, 2 mg/ml BSA, 0.1% Triton X-100; two-state fit of the rupture force profile.
Experiment [3] deals with platelet integrin αIIbβ3 (human) (UniProt P05106). Nature of the experiment: optical trap-based force spectroscopy; as a7, with free γC-12 or cRGDFK present; concentrations not given.
For experiment [4] the target is unchanged. Kind of experiment: optical trap-based force spectroscopy; as a1, with a competitive antagonist of αIIbβ3 (γC-12, cRGDFK or eptifibatide) present; concentrations not given.
Experiment [5] shares this target. Kind of experiment: optical trap-based force spectroscopy; as a5, with free γC-12 or cRGDFK present; concentrations not given.

Sequence of UniProt P02679 (P02679 whole entry, looked up): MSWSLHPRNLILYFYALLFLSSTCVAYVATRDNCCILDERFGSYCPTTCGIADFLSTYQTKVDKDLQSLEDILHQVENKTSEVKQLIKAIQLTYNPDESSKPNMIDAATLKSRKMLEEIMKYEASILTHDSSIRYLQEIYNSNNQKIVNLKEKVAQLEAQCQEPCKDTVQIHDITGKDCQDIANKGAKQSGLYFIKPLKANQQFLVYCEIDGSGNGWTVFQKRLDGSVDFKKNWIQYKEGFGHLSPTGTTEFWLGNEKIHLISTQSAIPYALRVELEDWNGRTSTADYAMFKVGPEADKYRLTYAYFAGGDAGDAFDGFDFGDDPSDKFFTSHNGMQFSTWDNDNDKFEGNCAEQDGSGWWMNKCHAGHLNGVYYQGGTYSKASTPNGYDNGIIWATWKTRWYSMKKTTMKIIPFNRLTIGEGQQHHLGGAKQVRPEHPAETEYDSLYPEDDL
Sequence of UniProt P02671 (P02671 36-866, chain 1 of 3): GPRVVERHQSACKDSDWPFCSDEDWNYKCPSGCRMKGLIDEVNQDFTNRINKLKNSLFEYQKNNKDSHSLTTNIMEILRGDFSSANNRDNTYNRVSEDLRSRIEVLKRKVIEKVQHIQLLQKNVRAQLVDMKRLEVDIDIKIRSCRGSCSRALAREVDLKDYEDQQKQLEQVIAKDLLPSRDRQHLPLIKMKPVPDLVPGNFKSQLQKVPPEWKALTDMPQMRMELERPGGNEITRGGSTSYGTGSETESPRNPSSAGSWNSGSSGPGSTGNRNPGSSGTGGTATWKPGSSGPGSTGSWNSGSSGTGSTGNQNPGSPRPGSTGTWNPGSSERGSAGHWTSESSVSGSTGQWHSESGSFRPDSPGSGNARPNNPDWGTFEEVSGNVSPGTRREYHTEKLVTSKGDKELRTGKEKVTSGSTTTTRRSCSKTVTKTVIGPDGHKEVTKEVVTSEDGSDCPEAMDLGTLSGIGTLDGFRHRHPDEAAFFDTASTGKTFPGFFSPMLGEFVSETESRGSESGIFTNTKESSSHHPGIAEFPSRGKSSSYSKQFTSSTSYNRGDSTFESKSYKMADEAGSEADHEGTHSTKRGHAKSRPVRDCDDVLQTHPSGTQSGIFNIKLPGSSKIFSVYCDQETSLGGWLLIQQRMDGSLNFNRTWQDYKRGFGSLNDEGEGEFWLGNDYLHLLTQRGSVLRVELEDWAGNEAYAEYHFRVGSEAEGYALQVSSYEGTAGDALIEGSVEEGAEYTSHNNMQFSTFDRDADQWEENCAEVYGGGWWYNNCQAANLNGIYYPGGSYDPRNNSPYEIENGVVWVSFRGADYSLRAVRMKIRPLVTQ
Sequence of UniProt P02671 (P02675 45-491, chain 2 of 3, further chain): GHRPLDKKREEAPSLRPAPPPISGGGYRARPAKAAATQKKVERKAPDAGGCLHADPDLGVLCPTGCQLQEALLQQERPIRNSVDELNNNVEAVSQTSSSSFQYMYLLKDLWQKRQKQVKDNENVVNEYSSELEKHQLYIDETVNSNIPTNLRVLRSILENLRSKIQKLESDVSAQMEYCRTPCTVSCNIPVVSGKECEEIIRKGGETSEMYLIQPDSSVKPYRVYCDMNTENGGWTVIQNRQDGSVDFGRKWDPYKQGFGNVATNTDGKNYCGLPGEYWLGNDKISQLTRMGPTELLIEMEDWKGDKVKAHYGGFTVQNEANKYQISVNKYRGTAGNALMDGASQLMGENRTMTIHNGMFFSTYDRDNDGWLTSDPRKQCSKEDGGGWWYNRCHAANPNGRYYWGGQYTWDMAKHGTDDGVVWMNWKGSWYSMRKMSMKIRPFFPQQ
Sequence of UniProt P02671 (P02679 other isoform, or with tags, fused parts or gaps, chain 3 of 3, further chain): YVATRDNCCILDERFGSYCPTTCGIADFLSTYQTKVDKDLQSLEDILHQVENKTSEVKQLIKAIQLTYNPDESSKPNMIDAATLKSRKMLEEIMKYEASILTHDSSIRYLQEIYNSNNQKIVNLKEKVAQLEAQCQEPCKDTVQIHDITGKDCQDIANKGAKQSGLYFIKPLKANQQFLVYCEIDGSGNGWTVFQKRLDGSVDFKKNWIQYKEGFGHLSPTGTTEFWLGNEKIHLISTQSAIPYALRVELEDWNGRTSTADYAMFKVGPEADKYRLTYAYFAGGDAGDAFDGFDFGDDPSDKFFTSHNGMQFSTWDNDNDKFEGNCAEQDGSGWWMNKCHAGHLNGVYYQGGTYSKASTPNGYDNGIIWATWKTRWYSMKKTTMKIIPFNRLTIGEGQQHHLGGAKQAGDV

With “platelet integrin αIIbβ3 (from UniProt P05106 27-788) (receptor)”, in the experiment with monomeric fibrin (human), the cumulative binding probability, rupture forces 30–60 pN is 21%; the cumulative binding probability, rupture forces >60 pN was 22%; the highest rupture force is less than 140 pN; the initial probability of the high-affinity state (two-state fit) came out at 0.0181. In addition, in the experiment with monomeric fibrin (human), the peak of the strong rupture forces is 70 to 80 pN. In experiment [1], the cumulative binding probability, rupture forces 30–60 pN came out at 4.6%; the cumulative binding probability, rupture forces >60 pN was found to be 3.2%; the initial probability of the high-affinity state (two-state fit) stood at 0.014; the peak of the strong rupture forces was in the range of 70 to 80 pN. Also, in experiment [2], the cumulative binding probability, rupture forces 30–60 pN amounted to 4.7% and the cumulative binding probability, rupture forces >60 pN was determined as 1.7%. In the experiment with fibrinogen (human), this molecule gave a cumulative binding probability, rupture forces 30–60 pN of 4.8%; a cumulative binding probability, rupture forces >60 pN of 3.6%; a highest rupture force of less than 140 pN; an initial probability of the high-affinity state (two-state fit) of 0.0063. Besides, in the experiment with fibrinogen (human), the peak of the strong rupture forces lay in the range of 70 to 80 pN.

In experiment [3], “fibrinogen γC-dodecapeptide (from UniProt P02679-2 426-437)” yielded a cumulative binding probability of αIIbβ3 to fibrinogen with γC-12 present, rupture forces 30–60 pN of 1.8% and a cumulative binding probability of αIIbβ3 to fibrinogen with γC-12 present, rupture forces >60 pN of 0.2%. Also, in experiment [4], the cumulative binding probability of αIIbβ3 to p-fibrin with γC-12 present, rupture forces 30–60 pN amounted to 2.1% and the cumulative binding probability of αIIbβ3 to p-fibrin with γC-12 present, rupture forces >60 pN stood at 0.8%. In experiment [5], this molecule yielded a cumulative binding probability of αIIbβ3 to m-fibrin with γC-12 present, rupture forces 30–60 pN of 7.4% and a cumulative binding probability of αIIbβ3 to m-fibrin with γC-12 present, rupture forces >60 pN of 12.3%.

RGDFK (also: cyclic, ring type not given here) [cyclic RGDFK peptide]: in experiment [3], the cumulative binding probability of αIIbβ3 to fibrinogen with cRGDFK present, rupture forces 30–60 pN came to 2.5% and the cumulative binding probability of αIIbβ3 to fibrinogen with cRGDFK present, rupture forces >60 pN was determined as 0.3%. In experiment [4], this molecule returned a cumulative binding probability of αIIbβ3 to p-fibrin with cRGDFK present, rupture forces 30–60 pN of 2.2% and a cumulative binding probability of αIIbβ3 to p-fibrin with cRGDFK present, rupture forces >60 pN of 0.6%. Moreover, in experiment [5], the cumulative binding probability of αIIbβ3 to m-fibrin with cRGDFK present, rupture forces 30–60 pN came to 5.1% and the cumulative binding probability of αIIbβ3 to m-fibrin with cRGDFK present, rupture forces >60 pN came to 2.7%.
